Data on three substances can be found in article PMC9758184.

Where two headings read alike, the source gives them in different places.

Common to all, as to assay: SEC; Superdex 200 HR 10/30, cold 1x PBS pH 7.2; native size of each protein from its own elution volume against size standards, dark- or light-incubated (same result in both); PmSB-LOV C53A run only in the mixture with PmlR2
The target in assay [1] is PmlR2-N (1-113 aa), tag-free recombinant protein containing only the HTH DNA-binding domain (Pseudomonas mendocina NBRC 14162).
Assay [2] addresses PmlR2 (Pseudomonas mendocina light-inducible transcriptional regulator), tag-free recombinant protein (Pseudomonas mendocina NBRC 14162).
In assay [3] the target is PmSB-LOV (Pseudomonas mendocina Sensory box-LOV), wild-type tag-free recombinant protein (Pseudomonas mendocina NBRC 14162).
For assay [4] the target is unchanged. The source holds these as a separate data set.

The stoichiometry N is a count of units in the complex or per binding partner. On to “PmlR2-N (1-113 aa), tag-free recombinant protein containing only the HTH DNA-binding domain (domain or fragment)”, for which, in assay [1], the stoichiometry N came to 2.

As to “PmlR2 (Pseudomonas mendocina light-inducible transcriptional regulator), tag-free recombinant protein (natural protein)”, in assay [2], the stoichiometry N was determined as 6.

For the substance “PmSB-LOV (Pseudomonas mendocina Sensory box-LOV), wild-type tag-free recombinant protein (natural protein)”, the stoichiometry N in assay [3] was determined as 3; in assay [4], 2.
